For the experiment, the target named is extracellular matrix proteins (ELISA of Figure S3: 'In each case'). As to the kind of experiment: ELISA. Background: An ELISA detects its analyte on a solid surface through an enzyme-linked reagent.

A word on the Kd: it is the concentration at which binding is half-saturated. The low end stands for tighter binding, the high end for weaker binding.

“capillary morphogenesis gene 2 (ANTXR2/CMG2), biotinylated CMG2-AviTag construct (from UniProt P58335 34-489) (receptor)” came in with a Kd of 500 to 1000 nM.

For the origin of these results see paper doi:10.1101/705442.
